Measurements from the supplement of paper PMC5998384.

Experiments:
HeLa Kyoto [1] = test: solubility in G1/S (NP-40 vs SDS abundance) (log2 ratio); higher = more soluble; settings: cell cycle stage: G1/S
HeLa Kyoto [2] = test: melting temperature (median over replicates), in situ; higher = more thermally stable
HeLa Kyoto [3] = test: solubility change mitosis vs G1/S (difference of NP-40 vs SDS log2 ratios) (log2 ratio difference); higher = more soluble in mitosis
HeLa Kyoto [4] = test: thermal stability score vs G1/S (z-score of summed log2 fold changes over temperatures); higher = more thermally stable than in G1/S
[5] = cell cycle stage: early G1 (4.5 h after nocodazole release)
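Wherever melting temperature (median over replicates), in situ is given: HeLa Kyoto cells synchronized by double thymidine or nocodazole block, proteins quantified by TMT10plex mass spectrometry, three independent biological replicates.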
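Wherever solubility change mitosis vs G1/S (difference of NP-40 vs SDS log2 ratios) is given: synchronized HeLa Kyoto cells (double thymidine block for G1/S, nocodazole release for mitosis), protein amounts in NP-40 versus SDS lysates quantified by mass spectrometry, three biological replicates.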
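Wherever solubility in G1/S (NP-40 vs SDS abundance) is given: HeLa Kyoto cells arrested at G1/S by double thymidine block, proteins quantified by TMT10plex mass spectrometry in mild NP-40 versus SDS extracts, three biological replicates.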
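Wherever thermal stability score vs G1/S (z-score of summed log2 fold changes over temperatures) is given: synchronized HeLa Kyoto cells, proteins quantified by TMT10plex mass spectrometry, three biological replicates, mitosis taken 0.5 h after nocodazole release, G1/S directly after double thymidine block.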

Row | Sequence | solubility in G1/S (log2) (HeLa Kyoto [1]) | melting temperature (HeLa Kyoto [2]; cell cycle stage: G1/S) | melting temperature (HeLa Kyoto [2]; cell cycle stage: mitosis) | solubility change mitosis (log2) (HeLa Kyoto [3]) | thermal stability score (HeLa Kyoto [4]; [5]) | thermal stability score (HeLa Kyoto [4]; cell cycle stage: mitosis)
1 | MEIIRSNFKSNLHKVYQAIEEADFFAIDGEFSGISDGPSVSALTNGFDTPEERYQKLKKHSMDFLLFQFGLCTFKYDYTDSKYITKSFNFYVFPKPFNRSSPDVKFVCQSSSIDFLASQGFDFNKVFRNGIPYLNQEEERQLREQYDEKRSQANGAGALSYVSPNTSKCPVTIPEDQKKFIDQVVEKIEDLLQSEENKNLDLEPCTGFQRKLIYQTLSWKYPKGIHVETLETEKKERYIVISKVDEEERKRREQQKHAKEQEELNDAVGFSRVIHAIANSGKLVIGHNMLLDVMHTVHQFYCPLPADLSEFKEMTTCVFPRLLDTKLMASTQPFKDIINNTSLAELEKRLKETPFNPPKVESAEGFPSYDTASEQLHEAGYDAYITGLCFISMANYLGSFLSPPKIHVSARSKLIEPFFNKLFLMRVMDIPYLNLEGPDLQPKRDHVLHVTFPKEWKTSDLYQLFSAFGNIQISWIDDTSAFVSLSQPEQVKIAVNTSKYAESYRIQTYAEYMGRKQEEKQIKRKWTEDSWKEADSKRLNPQCIPYTLQNHYYRNNSFTAPSTVGKRNLSPSQEEAGLEDGVSGEISDTELEQTDSCAEPLSEGRKKAKKLKRMKKELSPAGSISKNSPATLFEVPDTW [PARN] | -0.144 | 48.7 °C | 50.7 °C | -0.0471 | 1.32 | 2.89
2 | MEAERGPERRPAERSSPGQTPEEGAQALAEFAALHGPALRASGVPERYWGRLLHKLEHEVFDAGEVFGIMQVEEVEEEEDEAAREVRKQQPNPGNELCYKVIVTRESGLQAAHPNSIFLIDHAWTCRVEHARQQLQQVPGLLHRMANLMGIEFHGELPSTEAVALVLEEMWKFNQTYQLAHGTAEEKMPVWYIMDEFGSRIQHADVPSFATAPFFYMPQQVAYTLLWPLRDLDTGEEVTRDFAYGETDPLIRKCMLLPWAPTDMLDLSSCTPEPPAEHYQAILEENKEKLPLDINPVVHPHGHIFKVYTDVQQVASSLTHPRFTLTQSEADADILFNFSHFKDYRKLSQERPGVLLNQFPCENLLTVKDCLASIARRAGGPEGPPWLPRTFNLRTELPQFVSYFQQRERWGEDNHWICKPWNLARSLDTHVTKSLHSIIRHRESTPKVVSKYIESPVLFLREDVGKVKFDIRYIVLLRSVRPLRLFVYDVFWLRFSNRAFALNDLDDYEKHFTVMNYDPDVVLKQVHCEEFIPEFEKQYPEFPWTDVQAEIFRAFTELFQVACAKPPPLGLCDYPSSRAMYAVDLMLKWDNGPDGRRVMQPQILEVNFNPDCERACRYHPTFFNDVFSTLFLDQPGGCHVTCLV [TTLL12] | 0.0605 | 47.6 °C | 48.4 °C | -0.125 | 2 | 3.92
3 | MAASCLVLLALCLLLPLLLLGGWKRWRRGRAARHVVAVVLGDVGRSPRMQYHALSLAMHGFSVTLLGFCNSKPHDELLQNNRIQIVGLTELQSLAVGPRVFQYGVKVVLQAMYLLWKLMWREPGAYIFLQNPPGLPSIAVCWFVGCLCGSKLVIDWHNYGYSIMGLVHGPNHPLVLLAKWYEKFFGRLSHLNLCVTNAMREDLADNWHIRAVTVYDKPASFFKETPLDLQHRLFMKLGSMHSPFRARSEPEDPVTERSAFTERDAGSGLVTRLRERPALLVSSTSWTEDEDFSILLAALEKFEQLTLDGHNLPSLVCVITGKGPLREYYSRLIHQKHFQHIQVCTPWLEAEDYPLLLGSADLGVCLHTSSSGLDLPMKVVDMFGCCLPVCAVNFKCLHELVKHEENGLVFEDSEELAAQLQMLFSNFPDPAGKLNQFRKNLRESQQLRWDESWVQTVLPLVMDT [ALG1] | -0.369 | 52.4 °C | 52.6 °C | -0.125 | 0.156 | -0.276
4 | MSAHNRGTELDLSWISKIQVNHPAVLRRAEQIQARRTVKKEWQAAWLLKAVTFIDLTTLSGDDTSSNIQRLCYKAKYPIREDLLKALNMHDKGITTAAVCVYPARVCDAVKALKAAGCNIPVASVAAGFPAGQTHLKTRLEEIRLAVEDGATEIDVVINRSLVLTGQWEALYDEIRQFRKACGEAHLKTILATGELGTLTNVYKASMIAMMAGSDFIKTSTGKETVNATFPVAIVMLRAIRDFFWKTGNKIGFKPAGGIRSAKDSLAWLSLVKEELGDEWLKPELFRIGASTLLSDIERQIYHHVTGRYAAYHDLPMS [DERA] | -0.131 | 56.1 °C | 56.1 °C | -0.0424 | -3.39 | -3.58
5 | MNNSLENTISFEEYIRVKARSVPQHRMKEFLDSLASKGPEALQEFQQTATTTMVYQQGGNCIYTDSTEVAGSLLELACPVTTSVQPQTQQEQQIQVQQPQQVQVQVQVQQSPQQVSAQLSPQLTVHQPTEQPIQVQVQIQGQAPQSAAPSIQTPSLQSPSPSQLQAAQIQVQHVQAAQQIQAAEIPEEHIPHQQIQAQLVAGQSLAGGQQIQIQTVGALSPPPSQQGSPREGERRVGTASVLQPVKKRKVDMPITVSYAISGQPVATVLAIPQGQQQSYVSLRPDLLTVDSAHLYSATGTITSPTGETWTIPVYSAQPRGDPQQQSITHIAIPQEAYNAVHVSGSPTALAAVKLEDDKEKMVGTTSVVKNSHEEVVQTLANSLFPAQFMNGNIHIPVAVQAVAGTYQNTAQTVHIWDPQQQPQQQTPQEQTPPPQQQQQQLQVTCSAQTVQVAEVEPQSQPQPSPELLLPNSLKPEEGLEVWKNWAQTKNAELEKDAQNRLAPIGRRQLLRFQEDLISSAVAELNYGLCLMTREARNGEGEPYDPDVLYYIFLCIQKYLFENGRVDDIFSDLYYVRFTEWLHEVLKDVQPRVTPLGYVLPSHVTEEMLWECKQLGAHSPSTLLTTLMFFNTKYFLLKTVDQHMKLAFSKVLRQTKKNPSNPKDKSTSIRYLKALGIHQTGQKVTDDMYAEQTENPENPLRCPIKLYDFYLFKCPQSVKGRNDTFYLTPEPVVAPNSPIWYSVQPISREQMGQMLTRILVIREIQEAIAVANASTMH [QRICH1] | 0.184 | 47 °C | 49.3 °C | -0.197 | 3.16 | 5.23
6 | MATGQKLMRAVRVFEFGGPEVLKLRSDIAVPIPKDHQVLIKVHACGVNPVETYIRSGTYSRKPLLPYTPGSDVAGVIEAVGDNASAFKKGDRVFTSSTISGGYAEYALAADHTVYKLPEKLDFKQGAAIGIPYFTAYRALIHSACVKAGESVLVHGASGGVGLAACQIARAYGLKILGTAGTEEGQKIVLQNGAHEVFNHREVNYIDKIKKYVGEKGIDIIIEMLANVNLSKDLSLLSHGGRVIVVGSRGTIEINPRDTMAKESSIIGVTLFSSTKEEFQQYAAALQAGMEIGWLKPVIGSQYPLEKVAEAHENIIHGSGATGKMILLL [CRYZ] | 0.212 | 55.2 °C | 55 °C | -0.187 | -0.614 | -0.806
7 | MPVQLSEHPEWNESMHSLRISVGGLPVLASMTKAADPRFRPRWKVILTFFVGAAILWLLCSHRPAPGRPPTHNAHNWRLGQAPANWYNDTYPLSPPQRTPAGIRYRIAVIADLDTESRAQEENTWFSYLKKGYLTLSDSGDKVAVEWDKDHGVLESHLAEKGRGMELSDLIVFNGKLYSVDDRTGVVYQIEGSKAVPWVILSDGDGTVEKGFKAEWLAVKDERLYVGGLGKEWTTTTGDVVNENPEWVKVVGYKGSVDHENWVSNYNALRAAAGIQPPGYLIHESACWSDTLQRWFFLPRRASQERYSEKDDERKGANLLLSASPDFGDIAVSHVGAVVPTHGFSSFKFIPNTDDQIIVALKSEEDSGRVASYIMAFTLDGRFLLPETKIGSVKYEGIEFI [CANT1] | 0.0305 | 55.2 °C | 54.6 °C | -0.137 | -0.646 | -1.1
8 | MSSSNVEVFIPVSQGNTNGFPATASNDLKAFTEGAVLSFHNICYRVKLKSGFLPCRKPVEKEILSNINGIMKPGLNAILGPTGGGKSSLLDVLAARKDPSGLSGDVLINGAPRPANFKCNSGYVVQDDVVMGTLTVRENLQFSAALRLATTMTNHEKNERINRVIQELGLDKVADSKVGTQFIRGVSGGERKRTSIGMELITDPSILFLDEPTTGLDSSTANAVLLLLKRMSKQGRTIIFSIHQPRYSIFKLFDSLTLLASGRLMFHGPAQEALGYFESAGYHCEAYNNPADFFLDIINGDSTAVALNREEDFKATEIIEPSKQDKPLIEKLAEIYVNSSFYKETKAELHQLSGGEKKKKITVFKEISYTTSFCHQLRWVSKRSFKNLLGNPQASIAQIIVTVVLGLVIGAIYFGLKNDSTGIQNRAGVLFFLTTNQCFSSVSAVELFVVEKKLFIHEYISGYYRVSSYFLGKLLSDLLPMRMLPSIIFTCIVYFMLGLKPKADAFFVMMFTLMMVAYSASSMALAIAAGQSVVSVATLLMTICFVFMMIFSGLLVNLTTIASWLSWLQYFSIPRYGFTALQHNEFLGQNFCPGLNATGNNPCNYATCTGEEYLVKQGIDLSPWGLWKNHVALACMIVIFLTIAYLKLLFLKKYS [ABCG2] | -0.574 | 60.7 °C | 60.5 °C | -0.0838 | -1.15 | -0.412
